{"source": "paper PMC9765439", "about": "“Systems-Wide Dissection of Organic Acid Assimilation in Pseudomonas aeruginosa Reveals a Novel Path To Underground Metabolism” (mBio, 2022)", "system": "T1, PrpR (His6-PrpR) (Pseudomonas aeruginosa PAO1?), ORF:9118ca87", "T1 sequence": "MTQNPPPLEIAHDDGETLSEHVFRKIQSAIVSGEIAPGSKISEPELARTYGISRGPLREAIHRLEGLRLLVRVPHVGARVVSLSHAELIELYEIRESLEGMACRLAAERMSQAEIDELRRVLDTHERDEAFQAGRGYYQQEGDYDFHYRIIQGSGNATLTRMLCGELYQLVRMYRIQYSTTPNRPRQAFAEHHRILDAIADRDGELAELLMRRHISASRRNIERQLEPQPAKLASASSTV", "experiment": "EMSA", "conditions": "30 mM Tris-HCl pH 8.0, 120 mM KCl, 1 mM MnCl2, 1 mM MgCl2, 20% glycerol, 240 ug/mL BSA, 15.2 ug/mL poly(dI-dC), 21 C, 60 min; 6% PAGE in TBE"}
{"sequence": "CTGCTTCATCACGTCGCCCATGCCGCAGGCGAAGTCGATCAGGCGCGGCAACACGTAACGGTCATAGATGCCCACGAAACTCTCTCCTGGCACAGCGGCTGGAGGGGAAAGCATAGACCAGCGATGCATTAGACGATTGTCGACAATCAAGCGACGAATGATTGACCCCACGCAATCCAGGCGGTAGCTTTCGCAAACATTGTCGACACATCGACCCGGACAGCCAGTACCATGACCCAGAACCCGCCCCCTCTCGAGATTGCCCATGAC (double strand) [prpR promoter (prpRp)]", "values": [{"measurement": "binding", "value": "binds"}]}
